According to patent US20230357343A1 (ASHER BIOTHERAPEUTICS, published 2023):
Where a chain is given by its changes, count along the chain named. Names and notes keep the numbering of the source. Values belong to the binder of their own block, whether it stands above or below them.

Legend:
[1] = molecular target: T1, Human IL-21R (Biolegend, Catalog No. 773104) (human, UniProt Q9HBE5 20-232, limits assumed); test: SPR 37 C
T1 construct: Bought protein; also called IL-21 receptor

[2] = molecular target: T1, Human IL-21R (Biolegend, Catalog No. …); test: SPR 37 C, Fc-captured fusion;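 further: biacore SPR with anti-human IgG Fc surface and blank flow cell as reference, 10 min dissociation, double-referenced, 1:1 Langmuir fit with mass transport, triplicate runs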
[3] = molecular target: T2, recombinant human IL-21R, extracellular domain fused to 8xHistidine tag (generated in house) (human, UniProt Q9HBE5 20-232); test: SPR 37 C, Fc-captured fusion
[4] = molecular target: T2, recombinant human IL-21R, extracellular …; test: SPR 37 C
[5] = molecular target: human CD8 on CD8+ T cells (human, UniProt P01732 22-235; P10966 22-210); test: cell-based or functional assay
[6] = molecular target: T3, mouse CD8 (mouse, UniProt P10300 22-175, limits assumed); test: stated; no assay described
T3 construct: also called mouse CD8b
T3 sequence (looked up): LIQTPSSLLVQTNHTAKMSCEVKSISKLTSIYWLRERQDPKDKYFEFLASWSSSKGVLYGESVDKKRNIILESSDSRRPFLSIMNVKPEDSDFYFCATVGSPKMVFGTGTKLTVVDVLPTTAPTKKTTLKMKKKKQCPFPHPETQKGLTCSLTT

human CD8 on CD8+ T cells, sequence (P01732 22-235, chain 1 of 2): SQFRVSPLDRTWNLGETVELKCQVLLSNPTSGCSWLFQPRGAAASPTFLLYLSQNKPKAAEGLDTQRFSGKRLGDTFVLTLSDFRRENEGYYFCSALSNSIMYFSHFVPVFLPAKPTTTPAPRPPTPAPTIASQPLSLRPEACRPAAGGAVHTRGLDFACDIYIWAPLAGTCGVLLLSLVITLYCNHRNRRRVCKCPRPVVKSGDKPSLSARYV
human CD8 on CD8+ T cells, sequence (P10966 22-210, chain 2 of 2): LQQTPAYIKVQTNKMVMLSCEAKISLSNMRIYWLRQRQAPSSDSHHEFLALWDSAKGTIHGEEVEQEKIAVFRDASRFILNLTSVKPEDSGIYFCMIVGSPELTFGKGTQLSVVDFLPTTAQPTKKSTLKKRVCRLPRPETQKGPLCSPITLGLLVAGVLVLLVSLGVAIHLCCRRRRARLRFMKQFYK
T1 sequence (Q9HBE5 20-232 limits assumed): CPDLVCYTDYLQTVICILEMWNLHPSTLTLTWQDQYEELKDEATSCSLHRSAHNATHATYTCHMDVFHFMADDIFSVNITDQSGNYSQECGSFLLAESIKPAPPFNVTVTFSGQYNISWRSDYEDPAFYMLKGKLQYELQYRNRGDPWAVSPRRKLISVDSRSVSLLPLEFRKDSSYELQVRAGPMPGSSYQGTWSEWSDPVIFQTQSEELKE
T2 sequence (Q9HBE5 other isoform, or with tags, fused parts or gaps limits assumed): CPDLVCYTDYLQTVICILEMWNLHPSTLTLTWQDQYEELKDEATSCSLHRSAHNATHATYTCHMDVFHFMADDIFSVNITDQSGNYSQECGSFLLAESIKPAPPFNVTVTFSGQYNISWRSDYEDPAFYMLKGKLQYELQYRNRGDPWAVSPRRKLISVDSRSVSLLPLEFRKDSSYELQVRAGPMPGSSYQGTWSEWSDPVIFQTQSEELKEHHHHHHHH

fold difference in IL-21R affinity against wild type IL-21 [1]: ≤ 2 fold
Kd [2]: 0.122 nM
koff [2]: 0.0011 s⁻¹
kon [2]: 8.9e+06 M⁻¹ s⁻¹
B1: xhCD8-hIL21 v2 (other)
chain: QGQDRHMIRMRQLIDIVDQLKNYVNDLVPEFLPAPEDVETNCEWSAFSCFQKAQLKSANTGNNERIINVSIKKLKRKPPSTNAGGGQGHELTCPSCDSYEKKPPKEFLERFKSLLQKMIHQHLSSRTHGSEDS
VH: QVHLQQSGPELVKPGASVKMSCKTSGYTFTKYTMHWVKQGHEESLEWIGHFNPNNDETKYNQKFTGKATLTVDKSSTTAYMELRSLTSDDSALYYCARDGLGLRLFADWGQGTLITVSA
VL: DIQMTQSPASLSASVGETVTITCGASENIYGALNWYQRKQGKSPQLLIFGATNLADGVSSRFSGSGSDRQYSLKISSLHPDDVATYYCQNILDTPWTFGGGTKLEIK
notes: hIgG1/kappa; IL-21 part on one heavy-chain C-terminus via (G4S)3 linker; also called exemplary IL-21 polypeptide 2

fold difference in IL-21R affinity against wild type IL-21 [1]: ≤ 2 fold
Kd [2]: 0.117 nM
koff [2]: 0.00097 s⁻¹
kon [2]: 8.3e+06 M⁻¹ s⁻¹
B2: xhCD8-hIL21 v1 (other)
chain: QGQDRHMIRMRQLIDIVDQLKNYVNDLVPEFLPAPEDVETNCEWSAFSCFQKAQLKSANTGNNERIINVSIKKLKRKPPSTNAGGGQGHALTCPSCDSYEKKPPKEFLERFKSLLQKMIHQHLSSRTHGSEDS
VH: B1 VH
VL: B1 VL
notes: hIgG1/kappa; also called exemplary IL-21 polypeptide 1

fold difference in IL-21R affinity against wild type IL-21 [1]: ~3 fold
Kd [2]: 0.478 nM
koff [2]: 0.0025 s⁻¹
kon [2]: 5.2e+06 M⁻¹ s⁻¹
B3: xhCD8-hIL21 v6 (other)
chain: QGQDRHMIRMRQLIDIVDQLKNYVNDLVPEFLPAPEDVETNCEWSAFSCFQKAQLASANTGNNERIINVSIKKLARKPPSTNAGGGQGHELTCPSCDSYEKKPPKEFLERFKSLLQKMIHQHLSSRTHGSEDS
VH: B1 VH
VL: B1 VL
notes: hIgG1/kappa; IL-21 part on one heavy-chain C-terminus via (G4S)3 linker; also called exemplary IL-21 polypeptide 6

Kd [3]: 156 nM
B4: xhCD8.1-hIL21 v2.7 (other)
chain: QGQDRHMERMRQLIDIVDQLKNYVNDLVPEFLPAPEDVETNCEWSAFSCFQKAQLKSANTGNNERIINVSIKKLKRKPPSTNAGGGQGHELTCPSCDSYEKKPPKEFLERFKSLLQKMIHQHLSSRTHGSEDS
VH: QVQLVQSGAEVKKPGSSVKVSCKASGGTFSSYAISWVRQAPGQGLEWMGGIIPGYATANYAQKFQGRVTITADESTSTAYMELSSLRSEDTAVYYCARDAAGIRLFADWGQGTLVTVSS
VL: DIQMTQSPSSLSASVGDRVTITCRASQSIYGALNWYQQKPGKAPKLLIYGASNLQSGVPSRFSGSGSGTDFTLTISSLQPEDFATYYCQSTYTAPWTFGGGTKVEIK
notes: hIgG1/kappa; IL-21 part on one heavy-chain C-terminus via (G4S)3 linker

fold difference in IL-21R affinity against wild type IL-21 [1]: ≤ 2 fold
Kd [2]: 0.094 nM
koff [2]: 0.00119 s⁻¹
kon [2]: 1.27e+07 M⁻¹ s⁻¹
B5: xhCD8.1-hIL21 v29 (other)
chain: QGQDRHMIRMRQLIDIVDQLKNYVNDLVPEFLPAPEDVETNCEWSAFSCFQKAQLKSANTGNNERIINVSIKKLKRKPPGGGGEGGGGGEGGCPSCDSYEKKPPKEFLERFKSLLQKMIHQHLSSRTHGSEDS
VH: B4 VH
VL: B4 VL
notes: as for B4

Kd [3]: 614 nM
B6: xhCD8.1-hIL21 v2.39 (other)
chain: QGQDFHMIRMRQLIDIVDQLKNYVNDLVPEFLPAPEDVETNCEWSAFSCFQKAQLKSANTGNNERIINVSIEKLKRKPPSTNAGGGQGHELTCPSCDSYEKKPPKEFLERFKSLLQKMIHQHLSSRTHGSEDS
VH: B4 VH
VL: B4 VL
notes: as for B4

Kd [3]: 420 nM
B7: xhCD8.1-hIL21 v2.9 (other)
chain: not shown
VH: B4 VH
VL: B4 VL
notes: as for B4

Kd [3]: 2 nM
B8: xhCD8.1-hIL21 v2.34 (other)
chain: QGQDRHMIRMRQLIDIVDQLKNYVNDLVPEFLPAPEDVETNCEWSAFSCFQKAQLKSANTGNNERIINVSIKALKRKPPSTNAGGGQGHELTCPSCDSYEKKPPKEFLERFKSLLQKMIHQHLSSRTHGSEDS
VH: B4 VH
VL: B4 VL
notes: as for B4

binding result [4]: no binding
B9: xhCD8.1-hIL21 v2.43 (other)
chain: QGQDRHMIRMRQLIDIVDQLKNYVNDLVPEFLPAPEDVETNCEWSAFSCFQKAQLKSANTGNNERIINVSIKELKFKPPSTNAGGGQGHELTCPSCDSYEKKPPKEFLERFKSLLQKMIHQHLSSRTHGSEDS
VH: B4 VH
VL: B4 VL
notes: as for B4

STAT3 activation in human whole blood (pSTAT3, flow cytometry) [5]: > 100 fold
B10: xhCD8.1-hIL21 v2.64 (other)
chain: QGQDRHMIRMRQFIDAADQLKNYVNDLVPEFLPAPEDVETNCEWSAFSCFQKAQLKSANTGNNERIINVSIKKMKRKPPSTNAGGGQGHELTCPSCDSYEKKPPKEFLERFKSLLQKMIHQHLSSRTHGSEDS
VH: B4 VH
VL: B4 VL
notes: as for B4

Kd [3]: 601 nM
B11: xhCD8.1-hIL21 v2.37 (other)
chain: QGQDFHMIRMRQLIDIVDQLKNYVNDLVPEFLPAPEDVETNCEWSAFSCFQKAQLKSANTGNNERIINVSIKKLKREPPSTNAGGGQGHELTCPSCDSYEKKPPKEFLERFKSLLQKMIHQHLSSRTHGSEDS
VH: B4 VH
VL: B4 VL
notes: as for B4

STAT3 activation in human whole blood (pSTAT3, flow cytometry) [5]: > 100 fold
B12: xhCD8.1-hIL21 v2.63 (other)
chain: B10 chain with F13L, A16R, A17I, M74I
VH: B4 VH
VL: B4 VL
notes: as for B4

Kd [3]: 0.693 nM
B13: xhCD8.1-hIL21 v2.28 (other)
chain: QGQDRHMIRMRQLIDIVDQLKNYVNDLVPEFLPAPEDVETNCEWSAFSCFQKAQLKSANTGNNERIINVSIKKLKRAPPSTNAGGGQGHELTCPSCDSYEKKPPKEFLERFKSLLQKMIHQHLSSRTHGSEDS
VH: B4 VH
VL: B4 VL
notes: as for B4

fold difference in IL-21R affinity against wild type IL-21 [1]: ≤ 2 fold
Kd [2]: 0.094 nM
koff [2]: 0.00113 s⁻¹
kon [2]: 1.2e+07 M⁻¹ s⁻¹
B14: xhCD8.1-hIL21 v31 (other)
chain: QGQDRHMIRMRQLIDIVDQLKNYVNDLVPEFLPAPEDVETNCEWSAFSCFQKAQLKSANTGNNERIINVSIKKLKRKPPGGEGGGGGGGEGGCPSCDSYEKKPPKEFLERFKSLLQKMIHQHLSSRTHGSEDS
VH: B4 VH
VL: B4 VL
notes: as for B4

binding result [4]: no binding
B15: xhCD8.1-hIL21 v2.46 (other)
chain: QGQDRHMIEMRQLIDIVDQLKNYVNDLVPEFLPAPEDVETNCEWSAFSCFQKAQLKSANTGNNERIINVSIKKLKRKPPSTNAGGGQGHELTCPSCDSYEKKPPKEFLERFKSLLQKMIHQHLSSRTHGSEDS
VH: B4 VH
VL: B4 VL
notes: as for B4

binding result [4]: no binding
B16: xhCD8.1-hIL21 v2.20 (other)
chain: not shown
VH: B4 VH
VL: B4 VL
notes: as for B4

Kd [3]: 104 nM
B17: xhCD8.1-hIL21 v2.41 (other)
chain: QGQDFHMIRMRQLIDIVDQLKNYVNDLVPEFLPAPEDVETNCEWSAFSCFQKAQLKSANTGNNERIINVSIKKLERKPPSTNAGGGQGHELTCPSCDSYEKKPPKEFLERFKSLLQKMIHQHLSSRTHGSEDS
VH: B4 VH
VL: B4 VL
notes: as for B4

Kd [3]: 2.8 nM
B18: xhCD8.1-hIL21 v2.29 (other)
chain: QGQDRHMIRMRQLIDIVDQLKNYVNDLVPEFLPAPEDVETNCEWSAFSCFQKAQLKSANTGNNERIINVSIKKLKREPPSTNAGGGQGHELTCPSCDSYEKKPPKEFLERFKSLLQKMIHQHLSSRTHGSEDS
VH: B4 VH
VL: B4 VL
notes: as for B4

STAT3 activation in human whole blood (pSTAT3, flow cytometry) [5]: > 100 fold
B19: xhCD8.1-hIL21 v2.65 (other)
chain: B10 chain with F13R, A17I, M74I
VH: B4 VH
VL: B4 VL
notes: as for B4

Kd [3]: 3.4 nM
B20: xhCD8.1-hIL21 v2.31 (other)
chain: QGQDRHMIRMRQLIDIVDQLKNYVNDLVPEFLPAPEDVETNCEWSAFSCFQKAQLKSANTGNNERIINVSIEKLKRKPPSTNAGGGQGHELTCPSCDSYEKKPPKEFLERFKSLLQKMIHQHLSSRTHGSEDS
VH: B4 VH
VL: B4 VL
notes: as for B4

Kd [3]: 54.7 nM
B21: xhCD8.1-hIL21 v2.40 (other)
chain: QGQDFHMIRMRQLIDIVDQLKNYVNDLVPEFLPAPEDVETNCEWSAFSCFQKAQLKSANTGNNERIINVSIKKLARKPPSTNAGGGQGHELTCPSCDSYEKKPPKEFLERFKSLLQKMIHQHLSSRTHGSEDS
VH: B4 VH
VL: B4 VL
notes: as for B4

Kd [3]: 1.3 nM
B22: xhCD8.1-hIL21 v2.33 (other)
chain: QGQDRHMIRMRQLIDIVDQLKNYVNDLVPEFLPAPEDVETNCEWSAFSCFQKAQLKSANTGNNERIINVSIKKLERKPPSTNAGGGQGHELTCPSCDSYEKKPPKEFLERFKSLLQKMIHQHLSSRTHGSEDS
VH: B4 VH
VL: B4 VL
notes: as for B4

Kd [3]: 156 nM
B23: xhCD8.1-hIL21 v2.56 (other)
chain: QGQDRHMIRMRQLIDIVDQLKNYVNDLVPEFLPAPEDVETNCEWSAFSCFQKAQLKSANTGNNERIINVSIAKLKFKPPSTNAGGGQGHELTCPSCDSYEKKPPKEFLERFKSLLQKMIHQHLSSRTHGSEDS
VH: B4 VH
VL: B4 VL
notes: as for B4

Kd [3]: 0.419 nM
B24: xhCD8.1-hIL21 v2.30 (other)
chain: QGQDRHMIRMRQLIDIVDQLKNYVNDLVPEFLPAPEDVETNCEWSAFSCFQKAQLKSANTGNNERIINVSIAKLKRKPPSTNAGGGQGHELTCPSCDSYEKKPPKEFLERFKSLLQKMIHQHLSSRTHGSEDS
VH: B4 VH
VL: B4 VL
notes: as for B4

Kd [3]: 66.9 nM
B25: xhCD8.1-hIL21 v2.38 (other)
chain: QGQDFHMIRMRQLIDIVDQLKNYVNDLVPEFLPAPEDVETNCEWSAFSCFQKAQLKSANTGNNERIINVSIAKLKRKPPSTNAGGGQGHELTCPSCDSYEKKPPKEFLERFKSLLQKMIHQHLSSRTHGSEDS
VH: B4 VH
VL: B4 VL
notes: as for B4

fold difference in IL-21R affinity against wild type IL-21 [1]: ≤ 2 fold
Kd [2]: 0.093 nM
koff [2]: 0.00107 s⁻¹
kon [2]: 1.16e+07 M⁻¹ s⁻¹
B26: xhCD8.1-hIL21 v30 (other)
chain: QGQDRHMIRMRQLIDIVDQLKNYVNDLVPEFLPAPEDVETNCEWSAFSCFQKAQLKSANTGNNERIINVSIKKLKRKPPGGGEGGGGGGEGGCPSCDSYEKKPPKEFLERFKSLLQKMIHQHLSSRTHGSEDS
VH: B4 VH
VL: B4 VL
notes: as for B4

Kd [3]: 125 nM
B27: xhCD8.1-hIL21 v2.36 (other)
chain: not shown
VH: B4 VH
VL: B4 VL
notes: as for B4

fold difference in IL-21R affinity against wild type IL-21 [1]: ≤ 2 fold
Kd [2]: 0.106 nM
koff [2]: 0.00139 s⁻¹
kon [2]: 1.31e+07 M⁻¹ s⁻¹
B28: xhCD8.1-hIL21 v28 (other)
chain: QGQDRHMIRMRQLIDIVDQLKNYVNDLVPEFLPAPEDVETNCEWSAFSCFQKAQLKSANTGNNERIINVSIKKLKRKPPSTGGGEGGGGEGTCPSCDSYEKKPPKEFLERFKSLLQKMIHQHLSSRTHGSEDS
VH: B4 VH
VL: B4 VL
notes: as for B4

binding result [4]: no binding
B29: xhCD8.1-hIL21 v2.45 (other)
chain: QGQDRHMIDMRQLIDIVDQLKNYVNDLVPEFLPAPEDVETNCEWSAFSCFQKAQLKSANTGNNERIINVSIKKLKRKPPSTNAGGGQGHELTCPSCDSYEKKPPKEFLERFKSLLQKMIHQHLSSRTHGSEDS
VH: B4 VH
VL: B4 VL
notes: as for B4

Kd [3]: 420 nM
B30: xhCD8.1-hIL21 v2.58 (other)
chain: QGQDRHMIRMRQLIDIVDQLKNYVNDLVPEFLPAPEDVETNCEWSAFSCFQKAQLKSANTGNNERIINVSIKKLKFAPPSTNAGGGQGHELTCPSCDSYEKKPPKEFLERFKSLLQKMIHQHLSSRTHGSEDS
VH: B4 VH
VL: B4 VL
notes: as for B4

Kd [3]: 0.236 nM
B31: xhCD8.1-hIL21 v2.32 (other)
chain: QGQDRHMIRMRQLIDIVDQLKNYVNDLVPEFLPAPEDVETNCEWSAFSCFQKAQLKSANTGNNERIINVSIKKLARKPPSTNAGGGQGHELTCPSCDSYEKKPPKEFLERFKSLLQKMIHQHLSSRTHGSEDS
VH: B4 VH
VL: B4 VL
notes: as for B4

fold difference in IL-21R affinity against wild type IL-21 [1]: ≤ 2 fold
Kd [2]: 0.106 nM
koff [2]: 0.00139 s⁻¹
kon [2]: 1.31e+07 M⁻¹ s⁻¹
B32: xhCD8.1-hIL21 v27 (other)
chain: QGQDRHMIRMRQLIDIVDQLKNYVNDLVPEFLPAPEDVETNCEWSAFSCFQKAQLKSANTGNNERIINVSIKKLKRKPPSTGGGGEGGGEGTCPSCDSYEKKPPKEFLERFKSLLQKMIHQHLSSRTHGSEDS
VH: B4 VH
VL: B4 VL
notes: as for B4

binding result [4]: no binding
B33: xhCD8.1-hIL21 v2.42 (other)
chain: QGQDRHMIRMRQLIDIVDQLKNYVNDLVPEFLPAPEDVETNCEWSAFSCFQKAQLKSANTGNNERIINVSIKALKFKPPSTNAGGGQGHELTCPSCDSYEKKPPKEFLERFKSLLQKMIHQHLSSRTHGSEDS
VH: B4 VH
VL: B4 VL
notes: as for B4

binding result [6]: no binding
B34: xhCD8v11 (antibody, V domains shown)
VH: EVQLVESGGGLVQPGGSLRLSCAASGFTFSSYAMSWVRQAPGKGLEWVSDITYAGGSTAYADSVKGRFTISRDNAKNSLYLQMNSLRAEDTAVYYCARSNAYAWDDALDIWGQGTLVTVSS
VL: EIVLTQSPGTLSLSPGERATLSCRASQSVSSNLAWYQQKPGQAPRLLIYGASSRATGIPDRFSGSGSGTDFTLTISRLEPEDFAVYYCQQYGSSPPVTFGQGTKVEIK
notes: used as targeting arm of fusions
